We go through one substance from patent publication US20080171347A1.

The target in the assay is mouse synaptosomes (synaptosome preparation carrying the BoNT/A acceptor complex).

As to “inactivated BoNT/A (toxoid) (from UniProt P0DPI1 2-1296)”, the percent inhibition (maximum) amounted to 98%.
